The record followed here is the supplement of paper PMC9112550, “Optimization of the antimicrobial peptide Bac7 by deep mutational scanning” (BMC Biology, 2022).

In this data set the test system is Escherichia coli TOP10. The data set is described as follows: shrunken log2 fold change of peptide-encoding DNA abundance (4.5 h post-induction vs induction); higher = less antimicrobial activity (less host growth inhibition). As to conditions: time post-induction: 4.5 h; library: site-saturation at positions 5, 18, 19, 20.
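Also: peptides expressed intracellularly from a pBAD plasmid library in pooled LB shake-flask culture, induced with 0.3% L-arabinose, DNA abundance read by NGS, three biological replicates, DESeq2 with apeglm shrinkage.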

For the sequence RRIRRRPPRLPRPRPRPSSSPRP, the “shrunken log2 fold change” value was 0.133.

Consider RRIRNRPPRLPRPRPRPACVPRP, for which the “shrunken log2 fold change” value stood at 0.0235.

Consider RRIRHRPPRLPRPRPRPYEMPRP, for which the “shrunken log2 fold change” value is -0.383.

For the sequence RRIRDRPPRLPRPRPRPQHDPRP, the “shrunken log2 fold change” value is -0.249.

As for RRIRLRPPRLPRPRPRPSLMPRP, the “shrunken log2 fold change” value was found to be 0.126.

Turning to RRIRFRPPRLPRPRPRPVYLPRP, the “shrunken log2 fold change” value was -0.721.

RRIRCRPPRLPRPRPRPVRRPRP: the “shrunken log2 fold change” value came to 1.1.

On to RRIRPRPPRLPRPRPRPSDTPRP, for which the “shrunken log2 fold change” value is -0.29.

As to RRIRNRPPRLPRPRPRPGDGPRP, the “shrunken log2 fold change” value amounted to 0.292.

In the case of RRIRCRPPRLPRPRPRPQVGPRP, the “shrunken log2 fold change” value was -0.0906.

For the sequence RRIRIRPPRLPRPRPRPCYAPRP, the “shrunken log2 fold change” value is -0.68.

Turning to RRIRFRPPRLPRPRPRPMQPPRP, the “shrunken log2 fold change” value was 0.287.

Take RRIRIRPPRLPRPRPRPKTFPRP: the “shrunken log2 fold change” value was -0.0578.

Regarding RRIRWRPPRLPRPRPRPITMPRP, the “shrunken log2 fold change” value is -0.0679.

RRIRWRPPRLPRPRPRPCRAPRP: the “shrunken log2 fold change” value was 0.217.

As to RRIRLRPPRLPRPRPRPTNPPRP, the “shrunken log2 fold change” value is -0.348.

Regarding RRIRGRPPRLPRPRPRPNPFPRP, the “shrunken log2 fold change” value is 0.189.

On to RRIRKRPPRLPRPRPRPKYTPRP, for which the “shrunken log2 fold change” value was -0.113.

In the case of RRIRVRPPRLPRPRPRPRAPPRP, the “shrunken log2 fold change” value was determined as 0.831.

In the case of RRIRFRPPRLPRPRPRPNEGPRP, the “shrunken log2 fold change” value was -0.0411.

For the sequence RRIRPRPPRLPRPRPRPYAQPRP, the “shrunken log2 fold change” value is -0.478.

Take RRIRLRPPRLPRPRPRPQRGPRP: the “shrunken log2 fold change” value was determined as 0.111.

As to RRIRMRPPRLPRPRPRPNLNPRP, the “shrunken log2 fold change” value was -0.0299.

In the case of RRIRHRPPRLPRPRPRPSVFPRP, the “shrunken log2 fold change” value was -0.424.

Regarding RRIRYRPPRLPRPRPRPGCDPRP, the “shrunken log2 fold change” value was -0.282.

On to RRIRERPPRLPRPRPRPQMNPRP, for which the “shrunken log2 fold change” value was -0.276.

With RRIRSRPPRLPRPRPRPFHKPRP, the “shrunken log2 fold change” value is -0.0363.

Take RRIRERPPRLPRPRPRPFPKPRP: the “shrunken log2 fold change” value was 0.459.

On to RRIRDRPPRLPRPRPRPLKFPRP, for which the “shrunken log2 fold change” value was 0.0649.

Take RRIRFRPPRLPRPRPRPEGDPRP: the “shrunken log2 fold change” value was 0.0402.

On to RRIRFRPPRLPRPRPRPGCMPRP, for which the “shrunken log2 fold change” value is -0.178.

As for RRIRKRPPRLPRPRPRPMPCPRP, the “shrunken log2 fold change” value was -0.0242.

On to RRIRVRPPRLPRPRPRPERLPRP, for which the “shrunken log2 fold change” value was -0.0657.

Take RRIRTRPPRLPRPRPRPMQSPRP: the “shrunken log2 fold change” value is -0.349.

As to RRIRERPPRLPRPRPRPFLCPRP, the “shrunken log2 fold change” value is -0.143.

As to RRIRERPPRLPRPRPRPKIFPRP, the “shrunken log2 fold change” value amounted to 0.0686.

Consider RRIRPRPPRLPRPRPRPVWEPRP, for which the “shrunken log2 fold change” value is -0.126.

In the case of RRIRQRPPRLPRPRPRPQRRPRP, the “shrunken log2 fold change” value was found to be 0.0498.

Consider RRIRGRPPRLPRPRPRPIPFPRP, for which the “shrunken log2 fold change” value stood at 0.266.

Take RRIRDRPPRLPRPRPRPRNTPRP: the “shrunken log2 fold change” value is -0.205.

For the sequence RRIRARPPRLPRPRPRPAGCPRP, the “shrunken log2 fold change” value worked out at 0.648.

In the case of RRIRTRPPRLPRPRPRPKAAPRP, the “shrunken log2 fold change” value is 0.565.

Consider RRIRRRPPRLPRPRPRPWQIPRP, for which the “shrunken log2 fold change” value is 0.0297.

Turning to RRIRERPPRLPRPRPRPPNQPRP, the “shrunken log2 fold change” value was -0.118.

RRIRVRPPRLPRPRPRPAIYPRP: the “shrunken log2 fold change” value was -0.294.

In the case of RRIRTRPPRLPRPRPRPAWDPRP, the “shrunken log2 fold change” value amounted to 0.454.

In the case of RRIRWRPPRLPRPRPRPWNFPRP, the “shrunken log2 fold change” value was -0.188.

In the case of RRIRTRPPRLPRPRPRPGDNPRP, the “shrunken log2 fold change” value is -0.00277.

For RRIRTRPPRLPRPRPRPMHSPRP, the “shrunken log2 fold change” value came to 0.02.

RRIRARPPRLPRPRPRPTQMPRP: the “shrunken log2 fold change” value worked out at 0.563.

With RRIRDRPPRLPRPRPRPNGSPRP, the “shrunken log2 fold change” value was -0.0808.

For RRIRHRPPRLPRPRPRPRMLPRP, the “shrunken log2 fold change” value was -0.192.

For the sequence RRIRWRPPRLPRPRPRPDCNPRP, the “shrunken log2 fold change” value was -0.0173.

On to RRIRWRPPRLPRPRPRPWTAPRP, for which the “shrunken log2 fold change” value amounted to 0.306.

Regarding RRIRARPPRLPRPRPRPFQIPRP, the “shrunken log2 fold change” value is -0.0627.

Take RRIRYRPPRLPRPRPRPIFTPRP: the “shrunken log2 fold change” value is -0.212.

As to RRIRQRPPRLPRPRPRPEDLPRP, the “shrunken log2 fold change” value is 0.125.

As for RRIRHRPPRLPRPRPRPYVVPRP, the “shrunken log2 fold change” value is 0.0242.

In the case of RRIRLRPPRLPRPRPRPQCLPRP, the “shrunken log2 fold change” value was -0.455.

On to RRIRLRPPRLPRPRPRPSDNPRP, for which the “shrunken log2 fold change” value was -0.49.

Regarding RRIRERPPRLPRPRPRPHCPPRP, the “shrunken log2 fold change” value is -0.0673.

Regarding RRIRSRPPRLPRPRPRPYAVPRP, the “shrunken log2 fold change” value was -0.137.

On to RRIRVRPPRLPRPRPRPGDFPRP, for which the “shrunken log2 fold change” value was determined as 0.0156.

Take RRIRHRPPRLPRPRPRPFKVPRP: the “shrunken log2 fold change” value is -0.0904.

Take RRIRRRPPRLPRPRPRPIYGPRP: the “shrunken log2 fold change” value is -0.69.

Turning to RRIRFRPPRLPRPRPRPICCPRP, the “shrunken log2 fold change” value was -0.134.

With RRIRHRPPRLPRPRPRPGPSPRP, the “shrunken log2 fold change” value is 0.188.

As to RRIRYRPPRLPRPRPRPVTDPRP, the “shrunken log2 fold change” value was -0.418.

For the sequence RRIRERPPRLPRPRPRPHCKPRP, the “shrunken log2 fold change” value was -1.07.

Take RRIRKRPPRLPRPRPRPMPMPRP: the “shrunken log2 fold change” value turned out to be 0.00883.

As to RRIRRRPPRLPRPRPRPIVKPRP, the “shrunken log2 fold change” value is -0.0348.

As for RRIRERPPRLPRPRPRPHEPPRP, the “shrunken log2 fold change” value is -0.0545.

Take RRIRIRPPRLPRPRPRPPCNPRP: the “shrunken log2 fold change” value was -0.449.

Consider RRIRVRPPRLPRPRPRPFRPPRP, for which the “shrunken log2 fold change” value is -0.324.

As for RRIRCRPPRLPRPRPRPVLDPRP, the “shrunken log2 fold change” value came to 0.0892.

Turning to RRIRIRPPRLPRPRPRPTKRPRP, the “shrunken log2 fold change” value is -0.0508.

As to RRIRTRPPRLPRPRPRPYMTPRP, the “shrunken log2 fold change” value is -0.375.

For the sequence RRIRDRPPRLPRPRPRPEQNPRP, the “shrunken log2 fold change” value was found to be 0.517.

For the sequence RRIRHRPPRLPRPRPRPPVHPRP, the “shrunken log2 fold change” value was 0.00286.

For the sequence RRIRFRPPRLPRPRPRPIRYPRP, the “shrunken log2 fold change” value was -0.125.

Take RRIRKRPPRLPRPRPRPGSSPRP: the “shrunken log2 fold change” value is -0.0653.

For the sequence RRIRTRPPRLPRPRPRPWKRPRP, the “shrunken log2 fold change” value was determined as 0.0299.

In the case of RRIRTRPPRLPRPRPRPCWDPRP, the “shrunken log2 fold change” value was -0.192.

With RRIRIRPPRLPRPRPRPKPDPRP, the “shrunken log2 fold change” value was found to be 0.528.

For the sequence RRIRCRPPRLPRPRPRPFFAPRP, the “shrunken log2 fold change” value worked out at 0.216.

For RRIRTRPPRLPRPRPRPFTFPRP, the “shrunken log2 fold change” value is -0.187.

Regarding RRIRCRPPRLPRPRPRPFHGPRP, the “shrunken log2 fold change” value was -0.036.

As for RRIRERPPRLPRPRPRPGSVPRP, the “shrunken log2 fold change” value was found to be 0.00838.

RRIRGRPPRLPRPRPRPWFHPRP: the “shrunken log2 fold change” value was -0.121.

As to RRIRWRPPRLPRPRPRPLFEPRP, the “shrunken log2 fold change” value amounted to 0.25.

As for RRIRKRPPRLPRPRPRPTEQPRP, the “shrunken log2 fold change” value turned out to be 2.01.

With RRIRRRPPRLPRPRPRPPPTPRP, the “shrunken log2 fold change” value amounted to 1.12.

As to RRIRHRPPRLPRPRPRPKCWPRP, the “shrunken log2 fold change” value was 0.123.

RRIRYRPPRLPRPRPRPQDAPRP: the “shrunken log2 fold change” value was -0.215.

RRIRARPPRLPRPRPRPNCGPRP: the “shrunken log2 fold change” value stood at 0.281.

Consider RRIRLRPPRLPRPRPRPPSAPRP, for which the “shrunken log2 fold change” value turned out to be 0.654.

Take RRIRQRPPRLPRPRPRPIRPPRP: the “shrunken log2 fold change” value was 0.0227.

Consider RRIRIRPPRLPRPRPRPFKLPRP, for which the “shrunken log2 fold change” value is -0.597.

In the case of RRIRWRPPRLPRPRPRPIAQPRP, the “shrunken log2 fold change” value turned out to be 0.582.

For RRIRQRPPRLPRPRPRPPQLPRP, the “shrunken log2 fold change” value turned out to be 0.424.

RRIRVRPPRLPRPRPRPVGIPRP: the “shrunken log2 fold change” value was -0.0251.

For RRIRQRPPRLPRPRPRPYKGPRP, the “shrunken log2 fold change” value was -0.0872.

Regarding RRIRFRPPRLPRPRPRPRVDPRP, the “shrunken log2 fold change” value is -0.055.

For the sequence RRIRCRPPRLPRPRPRPDTSPRP, the “shrunken log2 fold change” value is -0.365.

Regarding RRIRIRPPRLPRPRPRPDQPPRP, the “shrunken log2 fold change” value is 0.022.

Turning to RRIRQRPPRLPRPRPRPEHSPRP, the “shrunken log2 fold change” value is -0.0123.

For RRIRFRPPRLPRPRPRPGRGPRP, the “shrunken log2 fold change” value worked out at 0.607.

As for RRIRLRPPRLPRPRPRPRLDPRP, the “shrunken log2 fold change” value was found to be 0.363.

As for RRIRNRPPRLPRPRPRPTEYPRP, the “shrunken log2 fold change” value was -0.203.

In the case of RRIRNRPPRLPRPRPRPISMPRP, the “shrunken log2 fold change” value is -0.0881.

For the sequence RRIRHRPPRLPRPRPRPDLHPRP, the “shrunken log2 fold change” value is -0.0566.

Turning to RRIRIRPPRLPRPRPRPSKHPRP, the “shrunken log2 fold change” value was -0.813.

For RRIRFRPPRLPRPRPRPQPQPRP, the “shrunken log2 fold change” value worked out at 0.301.

RRIRTRPPRLPRPRPRPNGKPRP: the “shrunken log2 fold change” value was -0.189.

For the sequence RRIRQRPPRLPRPRPRPTEMPRP, the “shrunken log2 fold change” value is -0.149.

Regarding RRIRSRPPRLPRPRPRPRKNPRP, the “shrunken log2 fold change” value is -0.0439.

As for RRIRYRPPRLPRPRPRPKGIPRP, the “shrunken log2 fold change” value is -0.228.

As for RRIRTRPPRLPRPRPRPVFKPRP, the “shrunken log2 fold change” value came out at 0.0882.

As to RRIRTRPPRLPRPRPRPMSCPRP, the “shrunken log2 fold change” value is -0.181.

In the case of RRIRFRPPRLPRPRPRPIHSPRP, the “shrunken log2 fold change” value is -0.895.

As for RRIRSRPPRLPRPRPRPYTNPRP, the “shrunken log2 fold change” value is -1.46.

In the case of RRIRTRPPRLPRPRPRPNAEPRP, the “shrunken log2 fold change” value stood at 0.25.

As for RRIRNRPPRLPRPRPRPGREPRP, the “shrunken log2 fold change” value worked out at 0.588.

Consider RRIRYRPPRLPRPRPRPPQEPRP, for which the “shrunken log2 fold change” value stood at 1.9.

For the sequence RRIRLRPPRLPRPRPRPDPPPRP, the “shrunken log2 fold change” value turned out to be 0.337.
